This passage reports IC50 and C (midpoint parameter of the printed 4-parameter fit) results from US20130323786A1.

For assay [1], the target named is human Fc receptor CD64-GST fusion protein (human) (UniProt P12314). Put plainly: ALPHA competition assay: test antibody competes with biotinylated wild-type IgG1 (m7) for the receptor-GST fusion; panel title huCD64 [continued) D].
The target in assay [2] is human Fc receptor CD16-GST fusion protein (human) (UniProt P08637). Description: ALPHA competition assay: test antibody competes with biotinylated wild-type IgG1 (m7) for the receptor-GST fusion; panel title huCD16a V.
A further assay addresses LINGO-1 (human) (UniProt Q96FE5). Put plainly: Cell bridging assay; fit of an essentially flat control curve (see non_binding); the axis on the sheet has no unit, µg/mL is from paragraph 391.

human Fc receptor CD64-GST fusion protein (human), sequence (P12314 16-292 limits assumed): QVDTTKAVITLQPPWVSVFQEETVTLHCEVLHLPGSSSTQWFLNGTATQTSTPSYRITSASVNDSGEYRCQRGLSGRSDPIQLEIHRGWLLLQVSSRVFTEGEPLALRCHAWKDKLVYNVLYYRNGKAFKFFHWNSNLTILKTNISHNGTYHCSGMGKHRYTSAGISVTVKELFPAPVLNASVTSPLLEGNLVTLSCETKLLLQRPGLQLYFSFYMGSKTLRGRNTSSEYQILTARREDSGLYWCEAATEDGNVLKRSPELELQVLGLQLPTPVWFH
human Fc receptor CD16-GST fusion protein (human), sequence (P08637 17-208): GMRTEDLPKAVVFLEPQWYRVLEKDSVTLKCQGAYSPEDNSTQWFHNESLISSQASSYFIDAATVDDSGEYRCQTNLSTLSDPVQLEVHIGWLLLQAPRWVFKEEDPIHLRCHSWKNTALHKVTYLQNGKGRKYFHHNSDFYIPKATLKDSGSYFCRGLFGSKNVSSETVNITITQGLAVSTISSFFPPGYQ

Take agly 5c8 T299A (JF) (antibody): the IC50 (as a rule, the concentration needed to halve the response being measured) was found to be 25 µg/mL in assay [1] and 62 µg/mL in assay [2].
Substance huIgG1 (antibody) displayed a C (midpoint parameter of the printed 4-parameter fit) in the assay with LINGO-1 (human) of 3.55 µg/mL.
